The text below walks through data of a protein production outcome set (Wang et al. 2014).

A short description of the series: label from the status in PepcDB records.
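Further: failed if final PepcDB status was selected cloned or expressed and not failed if soluble or beyond.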

Consider “MPRPSLRRGEETSGARSLHEIAPPAEKAVRKPLNLLPFRKDTPMTKDSYFHKSRAGVAGAPLFVLLHGTGGDENQFFDFGARLLPQATILSPVGDVSEHGAARFFRRTGEGVYDMVDLERATGKMADFIKANREHYQAGPVIGLGFSNGANILANVLIEQPELFDAAVLMHPLIPFEPKISPAKPTRRVLITAGERDPICPVQLTKALEESLKAQGGTVETVWHPGGHEIRSGEIDAVRGFLAAYGG”, for which the protein production result is recorded as “not failed”.
For “MPRRTATMLASTLMLIALLCAGVFIKVPYAEMSPGPTVNTLGEHDGEPVLQITGHKTYATTGHLNMTTVRVTSADYRMNLVEAVYGWLAHDNKVVPHDTLYPDGKTEEQSTQENAEEFSQSQESAKVAALKELDIPVKSWVIVSTVLKDSPAEGRLHAGDVIKAVDGTAVKAPDDVAELVTKHKPGDDVAFTILPAKEQAAAEKSKTYVPRTKKVTITTAKSDDTGAPRAIVGISAGTDHTFPFTVDIKLADVGGPSAGLMFALGIVDKLTPDDLTGGKFVAGTGTIDDDGKVGPIGGIEMKTVGAREKGAQYFLTPKDNCAAAAKDTPEGLTLVKVNTIDDALDALKDIRTGKTADLPKCTTKG”, the protein production result is on record as “failed”.
Turning to “MPRSQADSALAEAERHLAAGRSQQAREAFRRARLFFHRCADTDGEAIVLVRLGEAELAAGHLASAKEALSDALALLSHETDPSARADALHLMGSLKNAEKNAPERDRLWAEAVSAHRDHGNKAGEARVLRDQAQVAKATGKDDLAFDLFSRAHRLYADLGHSFHEAMILLEIGQLHRAQGRADLAHDALERAADLFRVNGDTLDEGRTRLTLARLLRDLGDKETALRDLTLCAKLFGANGHLGGQAEALIDLARLEAAKAPKAALKMLHQARALAARSGIPSLQTQAASEIARLDQAALKDTP”, the protein production entry is recorded as “failed”.
As for “MPRSTAASAPLTVRPFSLVPLMAAYMACTMSMMAFVSLIGPISRALHLETWHAGAAVTVSGVIWMLLARPWGQASDRFGRRRVLLLGTAGFTLAYWALCLFIDLSLQSLPSVAMAFLGLMLGRGLIGAFYAAIPVGGFALIADNVEPQHRARAMATLGAANAVGLVLGPAVAALLARYSLSLPFYAMAVLPLLAFLVLRYQLPRQELHLAQAPTRVRLGDPRLRRPMVVAFVAMLCVSVAQITVSFYALDRLHMSPADAAQTAGVALAMVGVALICAQLVVRKLEWPPLRMIRYGALLSALGYAGSMLVDSAWGLWLAFFVSAAGMGGVFPSFSALAANAVEASEQGATAGSIGAAQGLGVVIGPMAGSLIYAIEPRLPYLLAAVLLVLIAIWPAPQPKDL”, the protein production entry is “failed”.
Consider “MPRTQKNDNFVDKSFTVMADIILKILPTNKKAKEAFVYYRDGMSAQAEGEYAEALEYYEEALTLEEDTNDRGYILYNMGLIYASNGDHDKALELYHQAIELNPRLPQALNNIAVIYHYQGEKAKETGDHDGGEALFDQAADYWIRAIRMAPNNYIEAQNWLKTTGRMQIDVFF”, for which the protein production entry is recorded as “failed”.
Consider “MPSDNQRLALLPVGRTGRLDRPSLLLTGGSGVLGRALIDELSPDFDLLCLRRDTPLRDPRVRELQGDLVAPRLGLSPLAWHELALEVDVVLHCAAETDWRTPPQDITRTNLRGADTVLDLAARADAPLYLVSTAFVANTPTEEDRRHFPGAAAYLDSMARAEQMTREAGVPGAIVRPSVVMGDSGSGRIAGRQGLTRMIGSMVLGQAPVLPGAPATRIDMVPRDYVSRAIGDLVRGGVADGEYWLTAGQEAMGLREFADVCADVAVRHGLPRPQRPRFIPVDAVHRLLLPMLAGTSLPASLRRRLEYYAELLLVFQRELPFDTSLGEPDCGTRPTRTDLRAALVRNAESWAGNRAGLLSPNRSAATAPMEVAS”, for which the protein production entry is “failed”.
On to “MPSEAFRRHRAYRENKLQPLVSVLICAYNVEKYFAQSLAAVVNQTWRNLDILIVDDGSTDGTLAIAQRFQEQDGRIRILAQPRNSGLIPSLNIGLDELAKSGGGGEYIARTDADDIAAPDWIEKIVGEMEKDRSIIAMGAWLEVLSEEKDGNRLARHHEHGKIWKKPTRHEDIADFFPFGNPIHNNTMIMRRSVIDGGLRYNTERDWAEDYQFWYDVSKLGRLAYYPEALVKYRLHANQVSSKYSIRQHEIAQGIQKTARNDFLQSMGFKTRFDSLEYRQIKAVAYELLEKHLPEEDFERARRFLYQCFKRTDTLPAGAWLDFAADGRMRRLFTLRQYFGILHRLLKNR”, for which the protein production entry is recorded as “failed”.
As to “MPSHTDENWELAIQTPAITDRSLAAGLAYAMGSRVNGISFDAATGLLMGKVRGTGPQPYSTSAKLVRKPSGWSCTVGICNCPVRKDCKHVAALLFTAEDHPTIRAQLLSQAPGIQTSRVGSGQQGGSARPAWEQALNRLITKPGTAPSAAGIPLALQFEVEEPAAHFSYTGRRDPMRSVRQLKARPVMMGAKGKWIRGDVSWNNLSYVSFRREFNEVHVEWLQTFLAAHGSSNGRQQPSGAMWLSLNDFAAKNLWTLLAEATKAGIPLIHSAGSEPVRVETQPAVVGLSLARLATDPDTAKHEAPDGGLQLAPSVTLGGEAVDPGSVGFLGKPANGIFFTHSGDSLPGVPQQKNLITLAPMEGGISDELLEFVMDGDTLQIPAEDESRFLTSFYPKLRQSTPVQAADESVELPTLAVPTLSLLANYGNDHKVRLHWEWHYKSGTLVTSQPLWRHPDDRGYRDDLEEARILESLGRPWDVVPALAESATGGWGAPRIAASAELSGLDTLAFTEEVLPALKDLPDVVVETSGDIADYREAAEAPVVSISTKETASGDWFDLGIVITLEGEPVSFAAVFSALAAGMSRMLLPSGAYFSLDLPELHQLRALIDEARSLQDNPDNKDGTLQISRFQAGLWDELAQLGIVDEQAAAWREAVGGLLDDGVTGLPLPAGLNAELRPYQLEGFNWLSFLYKHSLGGVLADDMGLGKTVQAIALICAAKDLAAETAAAAQGDASEVVPRAPFLVVAPTSVVSNWAAEAQRFAPGLVVRTVGETFAKSGMAPAEALAGADVVITSYALFRIDYDAYASFQWAGLMLDEAQFVKNHQSKAYQCARKLPARFKLAITGTPLENNLMEFWALTSIVAPGLFPSPKRFAENYQKPVEKNGDSAQLGKLRRRVRPLMMRRTKEQVIKDLPPKQEQILEVVLNPRHQKVYQTHLQRERQKILGLIDDVNKNRFTIFQSLTLLRQLSLDASLVDSSLSGVRSSKLDVLFEQLEDLISEGHRALIFSQFTGFLGKVRERLDAEGVEYCYLDGSTRNRGDVVSEFKNGAAPVFLISLKAGGFGLNLTEADYVFLLDPWWNPASEAQAVDRTHRIGQARNVMVYRLVAKDTIEEKVMALKAKKSQLFADVMEGDALAGGSLTADDLAALFAE”, the protein production entry is on record as “failed”.
As for “MPSPSGSSTLSKPAPRFASIGSPYFGIMLAIMAVVLILSNIGASKGVVLGPIITDGGFFLFPLAYILGDVMSEVYGFKVARKAIITSFALSVFASLCYWIIIVLPGFNDEYGTAKQAAIEGALGPVPLIVLGSLLAFLAGQTINSWILVKMKARTGEKSLWARLMGSSVVGEFVDTLIFCSIAASVIGITDFGSFLNYVLVGFVYKTAVEFLFVPVTVLVVGWIKKREPSYGVVAA”, the entry is “failed”; as for “MPSSGQLYGDEERELTPTPAIPEEGVYEVKYSNRRTNVVRLLPNGFQERKLRRLANLSAKLFNEVNFERRQQFFHEGKVNIEETYKKYYEKYKVILGVNAQAVLNKNNEAWSSFFSLLKLKKEGKLPPHMNHVSPPGYWKDREAGKRKQILVIRQDRYKVDAENHKLILKDFDMEIDFIGRLKWYGKQGRLEIIFDETRNAWYAHIPIEVGVEETKAGKKSKHVVKGERKSIQISKPKGNKVASIDLGINVIASVVVNDGTWLLYKGVRTKEDYFYFQKRIAEVQSLADRTRNIGEYDAYLELLREKRRLFKKLTRRLTHLYRNLASHLIETLYELGVSTIYLGYPFNIVQEKGNKFTVNMWSYRKLMESIELKAQEYGMKVFEVVEYNTSKYCAYHDVEVKRNPRGVINCPLGHKLHSDLNGALNILKKALGVIVNAVKKPLSFIVDHNRVAPIKGCNPLEHHHHHH”, “failed”; as for “MPSSTTVPTRRGLVSGPSSSDAHGDMPAVSVIMNCLNCERDLAEAIGSVFAQTFDDWEIVFWDNGSTDRSAEIAQGFGERVRYFRATETVPLGAARNLAIAKARGEFIAFLDCDDVWLPEKLERQVALFRANPRVGLVCTDTVMFTGAKDLNRLFEHAHPARGHVFRELMTTQWISMSSAVIRRNALDGMDHWFDESLNVCEEADVFYRIAWDWELDHVDAPLTRWRVHGANTTFRKFGQFAEETLRILDKHRAMYPGYDERYADLVALLRRRAAFQRAVALWREGRGAEARATIAPFDASPKFRLFRLATYLPGALFDPLARLYFALPAFLRRLEHHHHHH”, “failed”.
Turning to “MPTFLAALLTGLFNLCKSKLGYFVATAFVWLGINWGSYHFVISPLVEQLYTYVDSVGTAGGRFGELALRALGLLNFDRALTMIISAYVSRFAMLNGRLYLFKRGYGVAPPASPKHEPFIPPAG”, the protein production entry is given as “failed”.
For the sequence “MPTINQLIRYGRKPKKKKSKAPALQGNPQKRGVCIKVSTMTPKKPNSALRKIARVRLSNGIEVTAYIPGIGHNLQEHSVVLVRGGRVKDLPGVRYKIIRGALDAAGVEGRRQSRSKYGAKRPKDQKK”, the protein production result is on record as “failed”.
In the case of “MPTKTLRIPTTDGQADAFAAFPDHSERYPGVLMYADGFGIRPVLREMALELAGHGYYVLVPNSFYRHGPAPLVELPEYIGEGIRPAVFAQLMPLIEAHTAERVLSDADAYLRFLTTQPEVGAGPVAVTGYCIGGLYAMRTAAAHPDQVAAVAAFHGPVGVDGANLFSKLTAQVHLGHAEGDMTPEALGELNQALDAAGVGYTSEIYPGTIHGFTMSDTDAYSAFGLKRHWDRLLPLLDRTL”, the protein production result is “failed”.
For the sequence “MPTKTYSEEFKRDAVALYENSDGASLQQIANDLGINRVTLKNWIIKYGSNHNVQGTTPSAAVSEAEQIRQLKKENALQRARTRHPAESCLEHHHHHH”, the protein production result is listed as “not failed”.
The value for “MPTLGFRFRAHTDEQTLRALKAQLKLACEVYNTLRWADIYFYQRDGKGLTQTELRQLALDLRKQDDEYKQVYSQVVQQIADRYYEARQRFFEGLARFPKEKKPHKYYSLVYPQYGWKILQVREIRKGSKKKLITLKLSNLGVFKVIVHRDFPLDKVKRVVVKLTRSERIYITFVVEGYEFPKLPNTGKVVAIDVGVEKLLVTSDSEYFPNLRPLEKALWKVKHLHRELSRKKFLSNNWFKAKVKLARAYEHLKNLRTDLYMKLGKWFAEHYDVVVMEDIHVKQLIGKSLRSLRRRLSDVAFSELRDLIKYQLEKYGKKLILVNPAYTSKTCARCGYVKEDLSLSDRVFVCSNCGWIADRDYNASLNILRGSGSERSLVPVELRPLPVPALRYWHGRAVKLEHHHHHH” was “failed”; that for “MPTLLNIQEFNKLNMNTILHITKRQQWEQAKNVGSYHADSLDTEGFIHSSKSIQILKVANRFFHHQTELVLLFIDSDQVKPEIRYEAADGDLFPHIYGELNLDAVYQVIDFEPGEDGLFEVPPEVVSLG” was “failed”; that for “MPTPADDLVVIGKIVSVYGIRGEVKVYSFTDPLDNLLDYRRWTLRRDGEIRQAELVRGRLHGKVLAAKLKGLDDREEARTFTGYEICIPRSELPSLEEGEYYWHQLEGLKVIDQGRQLLGVIDHLLETGANDVMVVKPCAGSLDDRERLLPYTGQCVLSIDLAAGEMRVDWDADF” was “not failed”.
Take “MPTTSRPALDVKGGTSPAKEDANQEMSSVAYSNLAVKDRKAVAILHYPGVASNGTKASGAPTSSSGSPIGSPTTTPPTKPPSFNLHPAPHLLASMQLQKLNSQYQGMAAATPGQPGEAGPLQNWDFGAQAGGAESLSPSAGAQSPAIIDSDPVDEEVLMSLVVELGLDRANELPELWLGQNEFDFTADFPSSC”: the protein production entry is listed as “failed”.
